Measurements as given in US6440461B1, “Poly(methylidene malonate) microspheres, preparation method and pharmaceutical compositions containing them” (Virsol, priority 1998, dated 2002).

Test system: C3H mice
Test: Oral tolerance induction: survival of mice after sensitisation to ovalbumin by subcutaneous injection
Type: in vivo
Conditions: 100 micrograms ovalbumin per mouse per day over 5 consecutive days, last dose 7 days before s.c. sensitisation with free ovalbumin (100 micrograms per mouse) on D0 and D14
Description: This preparation is administered via the oral route to C3H mice at the dose of 100 micrograms of encapsulated ovalbumin (per mouse per day) over 5 consecutive days. The last oral administration took place 7 days before the sensitisation of the animals to ovalbumin which is carried out by subcutaneous injection of free ovalbumin (100 micrograms per mouse) on days DO and D14. 90% of the mice survive the second injection while less than 30% of the mice administered with the microspheres without ovalbumin or with the same dose of non-encapsulated ovalbumin survive.

B1: ovalbumin (protein, UniProt P01012 2-386, looked up)
Ovalbumin: GSIGAASMEFCFDVFKELKVHHANENIFYCPIAIMSALAMVYLGAKDSTRTQINKVVRFDKLPGFGDSIEAQCGTSVNVHSSLRDILNQITKPNDVYSFSLASRLYAEERYPILPEYLQCVKELYRGGLEPINFQTAADQARELINSWVESQTNGIIRNVLQPSSVDSQTAMVLVNAIVFKGLWEKAFKDEDTQAMPFRVTEQESKPVQMMYQIGLFRVASMASEKMKILELPFASGTMSMLVLLPDEVSGLEQLESIINFEKLTEWTSSNVMEERKIKVYLPRMKMEEKYNLTSVLMAMGITDVFSSSANLSGISSAESLKISQAVHAAHAEINEAGREVVGSAEAGVDAASVSEEFRADHPFLFCIKHIATNAVLFFGRCVSP
mice surviving the second injection of free ovalbumin: less than 30%
